The text below walks through data of article PMC2075610 (Biochimica et Biophysica Acta. Molecular Basis of Disease, 2006).

The subject of one test is FIV. The settings on record: cited from earlier work.
A further test relates to FPR. The conditions noted are these: cited from earlier work.
For test [1], the target named is Coronavirus 229E spike 12mer (Human coronavirus 229E). The experiment in a line: flow.
For test [2], the target named is Coronavirus 229E spike 36mer (Human coronavirus 229E). The experiment in a line: flow.
Test [3] concerns the target Coronavirus 229E spike 5mer (Human coronavirus 229E). The test is described as follows: flow.
Test [4] addresses Coronavirus 229E spike 7mer (Human coronavirus 229E). The test is described as follows: flow.
For test [5], the target named is Coronavirus 229E spike N-terminal 7mer (Human coronavirus 229E). The test is described as follows: flow.
The target of test [6] is Coronavirus OC43 spike 36mer (Human coronavirus OC43). The experiment in a line: flow.
Test [7] addresses ETYIK-(Alexa Fluor)WPWWVWL (Human coronavirus 229E). The experiment in a line: flow.
The target of test [8] is HIV-1 gp41 12mer (Human immunodeficiency virus 1). The test is described as follows: flow.
Test [9] concerns the target HIV-2 envelope 37mer (Human immunodeficiency virus 2). The experiment in a line: flow.
Test [10] has as its target HKU-1 coronavirus spike peptide (Human coronavirus HKU1). The experiment in a line: flow.
A further test addresses MMWLL. The test is described as follows: flow.
Test [11] addresses SARS coronavirus spike 12mer (SARS coronavirus). The test is described as follows: flow.
The next test has as its target reverse 229E peptide. The experiment in a line: flow.

A value given as a limit tells only on which side of the number the result lay.

With QLQKWEDWVRWI, the “inhibition of FIV infection (potency)” value in the test with FIV is “low nanomolar”.

For the molecule WRWWWW, the “effect on FPR” value in the test with FPR is given as “did not affect FPR”.

B1: Formyl peptide receptor (FPR R190/N192), P21462 (protein)
chain: METNSSLPTNISGGTPAVSAGYLFLDIITYLVFAVTFVLGVLGNGLVIWVAGFRMTHTVTTISYLNLAVADFCFTSTLPFFMVRKAMGGHWPFGWFLCKFVFTIVDINLFGSVFLIALIALDRCVCVLHPVWTQNHRTVSLAKKVIIGPWVMALLLTLPVIIRVTTVPGKTGTVACTFNFSPWTNDPKERINVAVAMLTVRGIIRFIIGFSAPMSIVAVSYGLIATKIHKQGLIKSSRPLRVLSFVAAAFFLCWSPYQVVALIATVRIRELLQGMYKEIGIAVDVTSALAFFNSCLNPMLYVFMGQDFRERLIHALPASLERALTEDSTQTSDTATNSTLPSAEVELQAK
Consider B1, for which the Ki in [1] is 533 nM; in test [2], 10000 nM; in [3] it was 1000 nM; in test [4] it was 600 nM; in test [5], greater than 260000 nM; in [6] it was 850 nM. For the same molecule, the Ki in test [8] is 1200 nM; in test [9] it was 15700 nM; in test [10], 783 nM; in the test with MMWLL, 330 nM; in test [11] it was 2050 nM; with reverse 229E peptide, greater than 50000 nM. The molecule also displayed a Kd in test [7] of 121 nM.
